Results taken from paper PMC8276117.

Target: eHSP90α-His6 (secreted from HEK293) (human) (UniProt P07900)
Experiment: native gel or EMSA

stoichiometry N: 2
Substance: eHSP90α-His6 (secreted from HEK293) (from UniProt P07900 1-732) (natural protein)
